From doi:10.1101/2020.01.09.899195 (bioRxiv, 2020) come the findings set out here.

In one test the target is T1, MinD(R3E) (Escherichia coli, UniProt P0AEZ3 1-270, R3E).
T1 sequence (looked up): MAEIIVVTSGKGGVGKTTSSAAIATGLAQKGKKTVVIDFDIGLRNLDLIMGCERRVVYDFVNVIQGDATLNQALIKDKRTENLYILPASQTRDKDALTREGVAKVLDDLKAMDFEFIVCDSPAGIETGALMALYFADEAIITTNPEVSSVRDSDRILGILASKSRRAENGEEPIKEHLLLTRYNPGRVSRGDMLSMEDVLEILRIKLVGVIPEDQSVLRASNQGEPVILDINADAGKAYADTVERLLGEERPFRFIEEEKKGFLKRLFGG
As to the kind of experiment: 90° light scatter.

The target of another test is ClpX (Escherichia coli, UniProt P0A6H1 1-424). As to the kind of experiment: negative-stain transmission electron microscopy.

B1: MinC (natural protein, Escherichia coli, UniProt P18196 1-231, looked up)
chain: MSNTPIELKGSSFTLSVVHLHEAEPKVIHQALEDKIAQAPAFLKHAPVVLNVSALEDPVNWSAMHKAVSATGLRVIGVSGCKDAQLKAEIEKMGLPILTEGKEKAPRPAPTPQAPAQNTTPVTKTRLIDTPVRSGQRIYAPQCDLIVTSHVSAGAELIADGNIHVYGMMRGRALAGASGDRETQIFCTNLMAELVSIAGEYWLSDQIPAEFYGKAARLQLVENALTVQPLN
In the case of B1, in the test with MinD(R3E), the binding result is listed as “binds”.

B2: ClpP (enzyme)
chain: not shown
For the molecule B2, the binding result with ClpX is given as “binds”.
